Literature values in article PMC2948943.
pKd: −log10 of the molar value.

Target: UmuD (Escherichia coli) (UniProt P0AG11)

UmuD, sequence (P0AG11 25-139): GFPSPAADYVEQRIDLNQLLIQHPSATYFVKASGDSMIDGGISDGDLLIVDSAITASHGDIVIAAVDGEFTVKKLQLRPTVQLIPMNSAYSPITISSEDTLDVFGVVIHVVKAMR

pKd: > 11.00
Substance: UmuD (from UniProt P0AG11)
